Our source for the Kd values is article PMC10653890, “The morphogenic protein CopD controls the spatio-temporal dynamics of PBP1a and PBP2b in Streptococcus pneumoniae” (mBio, 2023).

B1: CopDED, extracellular two-PEPSY domain of CopD (Met38 to Leu162) (domain or fragment)
chain: SMKPYQTAKSEGEKLAQQYAGLEQADQVDLYNGLESYYSVLGRNKQQEALAVLIGKDDHKIYVYQLNQGISQEKAETVSKEKGAGEIDKITFGRYQDKPIWEVKSGSDFYLVDFETGALVNKEGL
modifications: labelled with the Protein labeling kit red NHS 2nd generation (Nanotemper)

The target of test [1] is T1, PBP1aTP, transpeptidase domain of PBP1a (Ser266 to Asn650) (S. pneumoniae R800 strain, UniProt Q8DR59 266-650).
T1 construct: also called PBP1aTP-6his; source: E. coli BL21 star (DE3), purified (Ni-NTA; extracellular domain digested by trypsin; gel filtration)
T1 sequence (looked up): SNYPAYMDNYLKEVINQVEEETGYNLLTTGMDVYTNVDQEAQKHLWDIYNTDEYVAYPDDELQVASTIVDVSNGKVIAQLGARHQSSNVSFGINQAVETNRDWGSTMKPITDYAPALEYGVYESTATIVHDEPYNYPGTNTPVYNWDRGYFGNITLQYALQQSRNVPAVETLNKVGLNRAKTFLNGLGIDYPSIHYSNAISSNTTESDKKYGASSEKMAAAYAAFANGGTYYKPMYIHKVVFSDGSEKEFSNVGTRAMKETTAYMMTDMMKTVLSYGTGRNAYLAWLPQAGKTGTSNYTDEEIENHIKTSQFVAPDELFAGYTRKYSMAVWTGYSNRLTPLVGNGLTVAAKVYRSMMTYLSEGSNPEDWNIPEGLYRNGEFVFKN
Kind of test: MST; Monolith NT.115; labelled CopDED at 168 nM, PBP2bTP 5.2 µM to 0.159 nM or PBP1aTP 4.5 µM to 0.137 nM; 20 mM HEPES pH 7.5, 300 mM NaCl, 10% glycerol, 0.1% Tween 20; 25°C. The following applies: both partners purified.

Test [2] addresses B1. The description is as above. Particulars: both partners purified.

Usually Kd stands for the free concentration of one partner at which half of the binding sites on the other are occupied at equilibrium, for simple one-to-one binding. A higher Kd goes with lower affinity. As to B1, the Kd in test [1] was above 10 µM.

B2: PBP2bTP, transpeptidase domain of PBP2b (Met39 to Asn685) (domain or fragment)
chain: MQVLNKDFYEKKLASASQTKITSSSARGEIYDASGKPLVENTLKQVVSFTRSNKMTATDLKETAKKLLTYVSISSPNLTERQLADYYLADPEIYKKIVEALPSEKRLDSDGNRLSESELYNNAVDSVQTSQLNYTEDEKKEIYLFSQLNAVGNFATGTIATDPLNDSQVAVIASISKEMPGISISTSWDRKVLETSLSSIVGSVSSEKAGLPAEEAEAYLKKGYSLNDRVGTSYLEKQYEETLQGKRSVKEIHLDKYGNMESVDTIEEGSKGNNIKLTIDLAFQDSVDALLKSYFNSELENGGAKYSEGVYAVALNPKTGAVLSMSGIKHDLKTGELTPDSLGTVTNVFVPGSVVKAATISSGWENGVLSGNQTLTDQSIVFQGSAPINSWYTQAYGSFPITAVQALEYSSNTYMVQTALGLMGQTYQPNMFVGTSNLESAMEKLRSTFGEYGLGTATGIDLPDESTGFVPKEYSFANYITNAFGQFDNYTPMQLAQYVATIANNGVRVAPRIVEGIYGNNDKGGLGDLIQQLQPTEMNKVNISDSDMSILHQGFYQVAHGTSGLTTGRAFSNGALVSISGKTGTAESYVADGQQATNTNAVAYAPSDNPQIAVAVVFPHNTNLTNGVGPSIARDIINLYQKYHPMN
Turning to B2, in test [2], the Kd was above 10 µM.
